Data as given in the DeepSol protein solubility set.

Assay: soluble on expression in E. coli; label from the status in PepcDB or PDB records

Sequence | soluble on expression in E. coli
PSSSQSEEKAPELPKPKKNRCFMCRKKVGLTGFDCRCGNLFCGLHRYSDKHNCPYDYKAEA | soluble
PSTVPIMHQVSATMRSITLSWPQPEQPNGIILDYEIRYYEKEHNEFNSSMARSQTNTARIDGLRPGMVYVVQVRARTVAGYGKFSGKMCFQTLTD | soluble
PTPPNWNMTSSGLEVKSPGDGILTPGENMELVAAVCSACHSLHMVTQQGLSRQRWDESLDWMIEEQGMEDLSGDDREAILEYLSTYYGG | not soluble
PVLTQTSEQAPSSAPRDVQARMLSSTTILVQWKEPEEPNGQIQGYRVYYTMDPTQHVNNWMKHNVADSQITTIGNLVPQKTYSVKVLAFTSIGDGPLSSDIQVITQTG | soluble
PYSSGVDENYYQDLRNRFNHGELYSADSIPSLGGKIFKTAGGREVYGGGGIIPDIFIPLDTAGLNSYMMKVEDSDLIPRYAFLYSDANRVSLSRFKTVEELGAYLDRTYLIFDFASFAQRYGIPMRTSLINEARNRIKKYINAYIAMNFFDLQGYYQLLLHDDPFILQAISLIKEGKTFPLIYDQKGTQSTDPAA | not soluble
QAILYVGHGSRVKKAQQEAAAFLEGCKAHISVPVQEISFLELQEPTIETGFEACVKQGATHIAVVPLLLLTAAHAKHDIPEEIVRVASRYPSVRISYGKPIGIDEEVVKAVYHRMKDIGVPYENARVVLIGRGSSDPDVKRDVTGIANLLQEMVPVKEVIPCFLTACGPNYKEVFSELEKDDGITTFIVPYLLFTGMLMNEIEREVQKLKAHNPNVYLSSYIGFHPHVKNAFLNRVRETAANSEGQFDFDGGSYASAAH | not soluble
QDFAELQGKWYTIVIAADNLEKIEEGGPLRFYFRHIDCYKNCSEMEITFYVITNNQCSKTTVIGYLKGNGTYETQFEGNNIFQPLYITSDKIFFTNKNMDRAGQETNMIVVAGKGNALTPEENEILVQFAHEKKIPVENILNILATDTCPE | soluble
QESVEDSLATVKVVLIPVGQEIVIPFKVDTILKYLKDHFSHLLGIPHSVLQIRYSGKILKNNETLVQHGVKPQEIVQVEIFSTNPDLYPVRRIDGLTDVSQIITV | soluble
QETGISMIGERTNSNGSKAFREAMLSGDWEKCVDIAKQQTRDGAHMLDLCVDYVGRDGTADMATLAALLATSSTLPIMIDSTEPEVIRTGLEHLGGRSIVNSVNFEDGDGPESRYQRIMKLVKQHGAAVVALTIDEEGQARTAEHKVRIAKRLIDDITGSYGLDIKDIVVDCLTFPISTGQEETRRDGIETIEAIRELKKLYPEIHTTLGLSNISFGLNPAARQVLNSVFLNECIEAGLDSAIAHSSKILPMNRIDDRQREVALDMVYDRRTEDYDPLQEFMQLFEGVSAAD | not soluble
QGWEKALYTLVTLYVTTRVIDAIHTRHMKLTAMIVTKKADEIKEAIYGKMVRGITTVPAKGAFTNEQKEMMIIVITRYELYDLEKIVKEVDPKAFTNIVQTTGIFGFFRKD | not soluble
QHPAFMTEMPTDGKYQDTIEALQSMKYDKEDDEDKQMNAEHHKEEGNKHFKFKKYRWATDCYSNGIKENSPDRKLNAVLYFNRAAAQKHLGNLRSAIKDCSMGRKFDPTHLKGVIRGAECLLELEYAKDALNWIESSKKIFAFTKETSDTPDLTDDEKKFIDQLETLRVKSVELSLKEERDKRKSRAEERKETESKKQLLDALKERNLNLCPRVPFDRPELMDMARLTVSLPLMHSHECVKFDDDLNLVWPILLQYPEAGQTDVLTETNELTTVGELLKEVLNSPAQWDPEHKFNFENVRFFVSDEYDEYLMEVYEWNDFKSVLSMPGYQIKQGLPVIMIMTKEKAASSLEALAEDENRYVAK | not soluble
QIKDHLIIVGFGFSGKTISKAAKAAGIPYLIIEMNPEIVQHEKAKGEKIQYGDATFGAVLEHAGIKNARVLVTGIADSSSTGKIVEKAKELNPNICVIVKVHDLQEMKRLNSMGADEIIPEEYETSVEIFVRLLEKYLVPRENIEK | not soluble
QIQLVQSGPELKKPGETVKISCKASGYTFTDYSMYWVKQAPGKGLKRMGWINTETGEPTYADDFKGRFALSLDTSASTAYLHISNLKNEDTATYFCARGLDSWGQGTSVTVSSAKTTPPSVYPLAPGCGDTTGSSVTLGCLVKGYFPESVTVTWNSGSLSSSVHTFPALLQSGLYTMSSSVTVPSSTWPSQTVTCSVAHPASSTTVDKKLEPS | soluble
QKVPAPVDGERIIMELSEADVECTIKIEAEDGYANDIWADLNGNGKYDSGERLDSGEFRDVEFRQTKAIVYGKMAKFLFRGSSAGD | not soluble
QLDGLDVYVAGKADVNFLFDRYISTKTELRSTTYSNYLYTWNHFIRDTFGKKKVRDVKYSDVLFFYTDLINNQGLQINTLETINTVLRPTFQLAVRDDIIRKNPVDGAYCEVKKRNGGARKTRRALTVDQQRKFMEYVAKNPFFYHWYPFFVFLLGTGCRIGEAIGIRWDDIDLENRIIDINHSLTYYQRADDSYKCEFRVSLPKTEAGNRRIPMMQQVYDVLQEEYERQKQEGFCVENVDGMTNFVFTNRFGMPHNPAAVNRAIKR | not soluble
QLKNNAAIQIDRVDNTEITETVSFDAEPTYVDDPEAPAGDETVVEEGAPGTKEVTRTVTTVNGQEESSTVINEVEITAAKPATISRGTKT | not soluble
QLVLVKRSTPPVAVIWSAPDCPYCRKLEKTLEQENASVYVVPVGVAENGFRQAARVYCADDPSQAWRKVMQGSEINGRAKTSCQYPRDMLNDIGFFLGMGRMATPIVVFADGSTVIGWNDQNAWMLLRKKISEQIFFND | not soluble
QMCSSLMIIAFDFDGTLVDSYSCIEEAFYRALKRTYPWLPGKRYIAKLLTKLELQFERPKFGKHGRKIKPPMKIFQGKFARAWFEERAKLTKPLDGAREVLERLKEDGHIVISFSAEDFIPGIKEYRLKISGLYDLFDDVIIFGRDITICEAFSIVREKYGYDTFVWVDDKPWRFIGRGDENTEYVWMYFPYTARFVSDDILAQIPHLHVIYDLWSLLDVVKNLK | not soluble
QNSWDSLQPDREQVIASLNVVELLKRHHYNKPPLNDERSAKIYDSYLKMLDPARMYFTAGDIAEFDRWRNRFDDFLKSGDLDPGFVIYKRHLDRLKGRLDYALAMLDKGVDKIDFSVDESLLIDREKAPWAKDTAELDDLWRKKVKDEVLRLKITGKDDKAIQEQLTKRYKNQLSRLKQTRSEDIFQAYINAFAQSYDPHTQYLSPDNAENFDINMSLSLEGIGAVLQSDNDYVKVVRLVPAGPAAKSKQIATSDKIIGVAQGKGEMVDVVGWRLDEVVKLIRGPKGSQVRLEVIPASNAPNDQTSKIVAITREAVKLEDQAAKKSIIKVDHEGRSYKLGVIDLPAFYLDFKAYRAGDPNYKSTTRDVKKLVAELQKDKVDGIVLDLRNNGGGSLQEATELTGLFIDQGPTVLVRNSDGRVDVLNDDEGKAFYTGPLAVLVNRLSASASEIFAGAMQDYHRALILGGQTFGKGTVQTIQPLNHGELKLTLAKFYRVSGQSTQHQGVIPDISYPSIVDDKEIGESALPDSMPWDTIRPVVKDEANPFKPFLAQLKAQHDARTENNADFVYARERLALAQELMKEKTVSLNEAKRRAQQTSIENRQLAMENALRKSKGQEPLKELKREDENALPEEDDKTKPQDDAYLTESGHILLDYLNLNSAVAK | not soluble
QPLGGESICSARAPAKYSITFTGKWSQTAFPKQYPLFRPPAQWSSLLGAAHSSDYSMWRKNQYVSNGLRDFAERGEAWALMKEIEAAGEALQSVHEVFSAPAVPSGTGQTSAELEVQRRHSLVSFVVRIVPSPDWFVGVDSLDLCDGDRWREQAALDLYPYDAGTDSGFTFSSPNFATIPQDTVTEITSSSPSHPANSFYYPRLKALPPIARVTLLRLRQSPR | soluble
QQMQAESGFVQHVGFKCDNCGIEPIQGVRWHCQDCPPEMSLDFCDSCSDCLHETDIHKEDHQLEPIYRS | soluble
QSWYGGFKDTAELVRGDSNECIELTDDQLSYLAVLWAARCAVGFQEMKLTRLAKETRLSHEVVQKITQIFISQGIVSVFEEYGPSGQKDVAWVQLTEHGCGLAKNLERVSSHS | not soluble
QTFGHGQARAFVLSPVMPVWDQGAFAGPLIEHFIRSGHQVTVFDSLSLPAVPDECFSGFAERWADALEPWGVPDVLVGVALGGALAQALAGISFLSVTPALLLLSSPSKADALLDARLGRMADLAEQGHVRQAKRLLDELVLPEGQAHAEQDRFDTETDALLAPQGRRLVRGFRLLDGVNVSERLCDYEGRVLSVFGGKSQLVGADHVLRTKGSNQHS | not soluble
QTGVQTNTPFGSGEDSIRCRQNISLFTSYAKTGNYKDAYDFWEKAYEECPASTKNIYIYGVKISEWRLQNEQDPAKRQQIIDKILKLYDDRVKYFGEDPKYGTDYIMASKISDYMQYMGDKTDYDKVYEWIKPTIDQHGENATPRALFYYAYSSLNKAIRNEAWHETYIKDYTFASQAMEKQLEVADEKGKEFIQPLKTQIDELFAQSGLADCNTLVKMYGDKLEENKTDTTFLKNMLGMFHASDCETHPLYFQANK | not soluble
QTSPMTPDITGKPFVAADASNDYIKREVMIPMRDGVKLHTVIVLPKGAKNAPIVLTRTPYDASGRTERLASPHMKDLLSAGDDVFVEGGYIRVFQDVRGKYGSEGDYVMTRPLRGPLNPSEVDHATDAWDTIDWLVKNVSESNGKVGMIGSSYEGFTVVMALTNPHPALKVAVPESPMIDGWMGDDWFNYGAFRQVNFDYFTGQLSKRGKGAGIARQGHDDYSNFLQAGSAGDFAKAAGLEQLPWWHKLTEHAAYDAFWQEQALDKVMARTPLKVPTMWLQGLWDQEDMWGAIHSYAAMEPRDKRNTLNYLVMGPWRHSQVNYDGSALGALNFEGDTARQFRHDVLRPFFDQYLVDGAPKADTPPVFIYNTGENHWDRLKAWPRSCDKGCAATSKPLYLQAGGKLSFQPPVAGQAGFEEYVSDPAKPVPFVPRPVDFADRAMWTTWLVHDQRFVDGRPDVLTFVTEPLTEPLQIAGAPDVHLQASTSGSDSDWVVKLIDVYPEEMASNPKMGGYELPVSLAIFRGRYRESFSTPKPLTSNQPLAFQFGLPTANHTFQPGHRVMVQVQSSLFPLYDRNPQTYVPNIFFAKPGDYQKATQRVYVSPEQPSYISLPVR | soluble
QVKLLESGPELVKPGASVKMSCKASGYTFTSYVMHWVKQKPGQGLEWIGYINPYNDGTKYNEKFKGKATLTSDKSSSTAYMELSSLTSEDSAVYYCVRGGYRPYYAMDYWGQGTSVTVSSAKTTPPSVYPLAPGSAAQTNSMVTLGCLVKGYFPEPVTVTWNSGSLSSGVHTFPAVLQSDLYTLSSSVTVPSSTWPSETVTCNVAHPASSTKVDKKIVPRDCTSHHHHHH | soluble
QVQLLESGPELVEPGASVKVSCKASAYSITDFNIYWVKQSHGKNLEWIGGIDPHNGGPVYNQKFNGKATLTVDKSSSTAFMHLNSLTSEDSAVYYCAIFYGNFFDYWGPGTTVTVSSASTKGPSVFPLAPSSKSTSGGTAALGCLVKDYFPEPVTVSWNSGALTSGVHTFPAVLQSSGLYSLSSVVTVPSSSLGTQTYICNVNHKPSNTKVDKKVEPKSCDKTHT | soluble
QVQLVQSGAEVKKPGSSVKVSCTSSEVTFSSFAISWVRQAPGQGLEWLGGISPMFGTPNYAQKFQGRVTITADQSTRTAYMDLRSLRSEDTAVYYCARSPSYICSGGTCVFDHWGQGTLVTVSSGGGGSGGGGSGGGGIQPGLTQPPSVSKGLRQTATLTCTGNSNNVGNQGAAWLQQHQGHPPKLLSYRNNDRPSGISERFSASRSGNTASLTITGLQPEDEADYYCSTWDSSLSAVVFGGGTKLTVLGQPKAAPSAAAEQKLISEEDLNGAAHHHHHH | soluble
